Drawing on patent US20200331999 (published 2020), this text covers IC50 and Kd for one molecule.

The target in assay [1] is T1, human TIGIT-Fc (human).
T1 chain: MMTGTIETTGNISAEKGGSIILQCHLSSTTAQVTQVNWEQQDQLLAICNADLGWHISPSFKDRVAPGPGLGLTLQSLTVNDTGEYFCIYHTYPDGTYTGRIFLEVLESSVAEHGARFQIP
Description: competition, FACS, blocking binding to PVR-L2 on HEK293.

The target in assay [2] is T2, human TIGIT ECD (human).
T2 chain: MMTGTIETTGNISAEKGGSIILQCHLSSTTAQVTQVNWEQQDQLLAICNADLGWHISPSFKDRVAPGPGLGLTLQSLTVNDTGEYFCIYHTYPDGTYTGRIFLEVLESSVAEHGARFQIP
Description: SPR, pH 6.0. A general note: In SPR one partner is held on a chip, and binding of the other changes the refractive index at the surface.

Assay [3] deals with T1, human TIGIT-Fc. Description: competition, FACS, blocking binding to PVR on HEK293.
The target of assay [4] is T2, human TIGIT ECD. Description: SPR, pH 7.4.

B1: hu1217-2-2/IgG1 (antibody, V domains shown)
VH: EVQLVESGGGLVQPGGSLRLSCAASGFTFSDYYMYWVRQAPGKGLEWVAYITKGGGSTYYPDSVKGRFTISRDNAKNTLYLQMNSLRAEDTAVYYCARQTNYDFTMDYWGQGTLVTVSS
VL: EIVMTQSPATLSVSPGERATLSCKASQDVGTSVAWYQQKPGQAPRLLIYWASARHTGIPARFSGSGSGTEFTLTISSLQSEDFAVYYCQQYSSYPLTFGGGTKVEIK
modifications: wild-type human IgG1 Fc
One may read the IC50 as the concentration that gives 50% inhibition. Read a low IC50 as inhibition by little substance. Broadly, the Kd is the constant that tells how readily two partners part at equilibrium. High values mean lower affinity, low ones higher affinity. For B1, the values for the IC50 with human TIGIT-Fc [1] and in the assay with human TIGIT-Fc [3] were 0.25 mg/L and 0.64 mg/L, respectively. Also, the results for the Kd in the assay with human TIGIT ECD [2] and with human TIGIT ECD [4] were 0.0299 nM and 0.219 nM, respectively.
